Changes are numbered by the printed parent chain. Each block holds one binder with its values, some of them ahead of it.
Key:
[1] = target: T1, FcγRIIb extracellular domain with C-terminal His tag (human, UniProt P31994 43-217); assay: SPR, captured antibody, FcgR analyte
T1 construct: extracellular domain; also called FcgRIIb
T1 sequence (looked up): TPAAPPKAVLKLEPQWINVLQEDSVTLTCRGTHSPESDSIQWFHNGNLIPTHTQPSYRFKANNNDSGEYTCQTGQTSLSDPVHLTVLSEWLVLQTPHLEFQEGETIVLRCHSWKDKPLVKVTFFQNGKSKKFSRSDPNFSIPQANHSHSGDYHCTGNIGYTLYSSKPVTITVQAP
Protocol: (§1) Relative binding activities were calculated for the results of analyzing interactions with the respective FcγRs according to the following method.

[2] = target: T2, FcγRIa extracellular domain with C-terminal His tag (human, UniProt P12314 16-292); assay: SPR, captured antibody, FcgR analyte
T2 construct: also called FcgRIa
Protocol: as §1

[3] = target: T3, FcγRIIb (human, UniProt P31994 43-217); assay: SPR (Biacore); parent = IL6R-B3/IL6R-L
T3 construct: extracellular domain; also called FcgRIIb; CD32B
T3 sequence (looked up): T1 sequence (looked up)

[4] = target: T4, FcγRIIa type R (human, UniProt P12318 34-217); assay: SPR (Biacore); parent = IL6R-B3/IL6R-L
T4 chain: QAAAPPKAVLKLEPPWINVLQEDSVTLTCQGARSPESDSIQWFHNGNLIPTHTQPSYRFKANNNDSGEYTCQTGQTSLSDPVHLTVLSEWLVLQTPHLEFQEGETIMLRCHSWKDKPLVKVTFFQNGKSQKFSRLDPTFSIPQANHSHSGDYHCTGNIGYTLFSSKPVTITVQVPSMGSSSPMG

[5] = target: T3, FcγRIIb; assay: SPR (Biacore), captured antibody, soluble FcγR
[6] = target: T4, FcγRIIa type R; assay: SPR (Biacore), captured antibody, soluble FcγR
[7] = target: T5, FcγRIa (human, UniProt P12314 16-292); assay: SPR (Biacore), captured antibody, soluble FcγR
T5 construct: Whole entry named; also called FcgRIa; CD64A
T5 sequence (P12314 16-292): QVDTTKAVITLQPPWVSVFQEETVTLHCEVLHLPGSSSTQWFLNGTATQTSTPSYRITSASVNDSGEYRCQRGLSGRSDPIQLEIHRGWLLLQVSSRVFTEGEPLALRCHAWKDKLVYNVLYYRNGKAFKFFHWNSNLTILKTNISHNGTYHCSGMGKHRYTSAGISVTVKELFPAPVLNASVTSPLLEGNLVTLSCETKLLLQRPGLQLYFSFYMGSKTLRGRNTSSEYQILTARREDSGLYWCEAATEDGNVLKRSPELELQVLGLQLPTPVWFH

T2 sequence (P12314 16-292): as above

B2: IL6R-BP495/IL6R-L (antibody, human IgG1, kappa)
heavy: QVQLQESGPGLVKPSETLSLTCAVSGHSISHDHAWSWVRQPPGEGLEWIGFISYSGITNYNPSLQGRVTISRDNSKNTLYLQMNSLRAEDTAVYYCARSLARTTAMDYWGEGTLVTVSSASTKGPSVFPLAPSSKSTSGGTAALGCLVKDYFPEPVTVSWNSGALTSGVHTFPAVLQSSGLYSLSSVVTVPSSSLGTQTYICNVNHKPSNTKVDKKVEPKSCDKTHTCPPCPAPELLGDDSVFLFPPKPKDTLMISRTPEVTCVVVDVGEEDGEVKFNWYVDGVEVHNAKTKPREEQDNSTYRVVSVLTVLHQDWLNGKEYKCKVSNKALPRPIEKTISKAKGQPREPQVYTLPPSRDELTKNQVSLTCLVKGFYPSDIAVEWESNGQPENNYKTTPPVLDSDGSFFLYSKLTVDKSRWQQGNVFSCSVMHEALHNHYTQESLSLSP
light: not shown
notes: Alterations in EU numbering, introduced into IL6R-B3
KD(IIb) of the parent polypeptide/KD(IIb) of the altered polypeptide [3]: 321 fold
KD(IIaR) of the parent polypeptide/KD(IIaR) of the altered polypeptide [4]: 2.2 fold
Kd [5]: 9.7 nM
Kd [6]: 490 nM
Kd [7]: 8.3 nM

B3: IL6R-BP184/IL6R-L (antibody, human IgG1, kappa)
heavy: B2 heavy with E235D, D239G, G269S, E270H, D298Y, R332K
light: not shown
relative binding activity [1]: 171 relative (IL6R-BF648/IL6R-L = 100)
relative binding activity [2]: 96 relative (IL6R-BF648/IL6R-L = 100)

B6: IL6R-BP507/IL6R-L (antibody, human IgG1, kappa)
heavy: B2 heavy with E235D, V266I, G269A, E274P, D298Y
light: not shown
notes: as for B2
Kd [5]: 2.9 nM
Kd [6]: 100 nM
Kd [7]: 2.6 nM

B8: IL6R-BP435/IL6R-L (antibody, human IgG1, kappa)
heavy: B2 heavy with E235D, G269S, E270D, K328A, I334T
light: not shown
notes: as for B2
Kd [7]: 1 nM

B9: IL6R-BP532/IL6R-L (antibody, human IgG1, kappa)
heavy: B2 heavy with E235D, V266I, G269S, P398M
light: not shown
notes: as for B2
Kd [5]: 3.2 nM
Kd [6]: 94 nM
Kd [7]: 12 nM

B10: IL6R-BP480/IL6R-L (antibody, human IgG1, kappa)
heavy: B2 heavy with E235D, V268L, G269S, E271D, D298Y, R332A
light: not shown
notes: as for B2
Kd [5]: 200 nM
Kd [6]: 6300 nM

B11: IL6R-BP483/IL6R-L (antibody, human IgG1, kappa)
heavy: B2 heavy with E235D, V268L, G269A, D298Y, R332A
light: not shown
notes: as for B2
KD(IIb) of the parent polypeptide/KD(IIb) of the altered polypeptide [3]: 39.7 fold
KD(IIaR) of the parent polypeptide/KD(IIaR) of the altered polypeptide [4]: 0.8 fold
Kd [5]: 78 nM
Kd [6]: 1300 nM
Kd [7]: 1.3 nM

B13: IL6R-BP537/IL6R-L (antibody, human IgG1, kappa)
heavy: B2 heavy with V266I, D298Y
light: not shown
notes: as for B2
Kd [5]: 6.9 nM
Kd [6]: 270 nM
Kd [7]: 29 nM

B14: IL6R-BP552/IL6R-L (antibody, human IgG1, kappa)
heavy: B2 heavy with E235D, V266I, G269A, E274D
light: not shown
notes: as for B2
Kd [5]: 2.6 nM
Kd [6]: 97 nM
Kd [7]: 3.2 nM

B17: IL6R-BP492/IL6R-L (antibody, human IgG1, kappa)
heavy: B2 heavy with D239G, V266I, G269A, D298Y, R332A
light: not shown
notes: as for B2
KD(IIb) of the parent polypeptide/KD(IIb) of the altered polypeptide [3]: 131 fold
KD(IIaR) of the parent polypeptide/KD(IIaR) of the altered polypeptide [4]: 1.2 fold
Kd [5]: 24 nM
Kd [6]: 920 nM
Kd [7]: 0.79 nM

B22: IL6R-BP493/IL6R-L (antibody, human IgG1, kappa)
heavy: B2 heavy with D239G, V266I, G269A, R332A
light: not shown
notes: as for B2
KD(IIb) of the parent polypeptide/KD(IIb) of the altered polypeptide [3]: 147 fold
KD(IIaR) of the parent polypeptide/KD(IIaR) of the altered polypeptide [4]: 1 fold
Kd [5]: 21 nM
Kd [6]: 1100 nM
Kd [7]: 0.82 nM

B23: IL6R-BP494/IL6R-L (antibody, human IgG1, kappa)
heavy: B2 heavy with G269A
light: not shown
notes: as for B2
KD(IIb) of the parent polypeptide/KD(IIb) of the altered polypeptide [3]: 471 fold
KD(IIaR) of the parent polypeptide/KD(IIaR) of the altered polypeptide [4]: 4.3 fold
Kd [5]: 6.6 nM
Kd [6]: 250 nM
Kd [7]: 3.9 nM

B25: IL6R-BP481/IL6R-L (antibody, human IgG1, kappa)
heavy: B2 heavy with E235D, V266I, G269A, D298Y, R332A
light: not shown
notes: as for B2
KD(IIb) of the parent polypeptide/KD(IIb) of the altered polypeptide [3]: 160 fold
KD(IIaR) of the parent polypeptide/KD(IIaR) of the altered polypeptide [4]: 2.8 fold
Kd [5]: 19 nM
Kd [6]: 400 nM
Kd [7]: 1 nM

B26: IL6R-BP555/IL6R-L (antibody, human IgG1, kappa)
heavy: B2 heavy with V266I, G269A, E274D
light: not shown
notes: as for B2
Kd [5]: 4.1 nM
Kd [6]: 160 nM
Kd [7]: 9.4 nM

B32: IL6R-BP268/IL6R-L (antibody, human IgG1, kappa)
heavy: B2 heavy with E235D, G269S, R332A
light: not shown
notes: as for B2
KD(IIb) of the parent polypeptide/KD(IIb) of the altered polypeptide [3]: 33.7 fold
KD(IIaR) of the parent polypeptide/KD(IIaR) of the altered polypeptide [4]: 0.6 fold
Kd [5]: 92 nM
Kd [6]: 1800 nM
Kd [7]: 4.5 nM

B33: IL6R-BP205/IL6R-L (antibody, human IgG1, kappa)
heavy: B2 heavy with E235D, D239G, G269S, E270H
light: not shown
relative binding activity [1]: 167 relative (IL6R-BF648/IL6R-L = 100)
relative binding activity [2]: 97 relative (IL6R-BF648/IL6R-L = 100)

The remaining lines, values ahead:

relative binding activity [1]: 173 relative (IL6R-BF648/IL6R-L = 100)
relative binding activity [2]: 95 relative (IL6R-BF648/IL6R-L = 100)
B1: IL6R-BP182/IL6R-L (antibody, human IgG1, kappa)
heavy: B2 heavy with E235D, D239G, G269S, E270H, R332K
light: not shown

KD(IIb) of the parent polypeptide/KD(IIb) of the altered polypeptide [3]: 25.8 fold
KD(IIaR) of the parent polypeptide/KD(IIaR) of the altered polypeptide [4]: 0.5 fold
Kd [5]: 120 nM
Kd [6]: 2000 nM
Kd [7]: 10 nM
B4: IL6R-BP262/IL6R-L (antibody, human IgG1, kappa)
heavy: B2 heavy with G269S, D298Y, R332A
light: not shown
notes: as for B2

relative binding activity [1]: 173 relative (IL6R-BF648/IL6R-L = 100)
relative binding activity [2]: 113 relative (IL6R-BF648/IL6R-L = 100)
B5: IL6R-BP193/IL6R-L (antibody, human IgG1, kappa)
heavy: B2 heavy with E235D, D239G, G269S, E270D, D298Y, R332K
light: not shown

relative binding activity [1]: 165 relative (IL6R-BF648/IL6R-L = 100)
relative binding activity [2]: 110 relative (IL6R-BF648/IL6R-L = 100)
B7: IL6R-BP204/IL6R-L (antibody, human IgG1, kappa)
heavy: B2 heavy with E235D, D239G, G269S, E270H, D298Y, K328A
light: not shown

KD(IIb) of the parent polypeptide/KD(IIb) of the altered polypeptide [3]: 1200 fold
KD(IIaR) of the parent polypeptide/KD(IIaR) of the altered polypeptide [4]: 13.8 fold
Kd [5]: 2.6 nM
Kd [6]: 80 nM
Kd [7]: 2 nM
B12: IL6R-BP445/IL6R-L (antibody, human IgG1, kappa)
heavy: B2 heavy with E235D, V266I, G269A, D298Y
light: not shown
notes: as for B2

Kd [5]: 3.4 nM
Kd [6]: 120 nM
Kd [7]: 3.1 nM
B15: IL6R-BP506/IL6R-L (antibody, human IgG1, kappa)
heavy: B2 heavy with E235D, V266I, G269A, E274P
light: not shown
notes: as for B2

KD(IIb) of the parent polypeptide/KD(IIb) of the altered polypeptide [3]: 55.5 fold
KD(IIaR) of the parent polypeptide/KD(IIaR) of the altered polypeptide [4]: 1.2 fold
Kd [5]: 56 nM
Kd [6]: 900 nM
Kd [7]: 5.3 nM
B16: IL6R-BP479/IL6R-L (antibody, human IgG1, kappa)
heavy: B2 heavy with E235D, V266I, V268L, G269A, D298Y, R332A
light: not shown
notes: as for B2

relative binding activity [1]: 172 relative (IL6R-BF648/IL6R-L = 100)
relative binding activity [2]: 109 relative (IL6R-BF648/IL6R-L = 100)
B18: IL6R-BP192/IL6R-L (antibody, human IgG1, kappa)
heavy: B2 heavy with E235D, D239G, G269S, E270D, R332K
light: not shown

Kd [5]: 3.8 nM
Kd [6]: 120 nM
Kd [7]: 9.4 nM
B19: IL6R-BP531/IL6R-L (antibody, human IgG1, kappa)
heavy: B2 heavy with E235D, V266I, P398M
light: not shown
notes: as for B2

Kd [7]: 1 nM
B20: IL6R-BP426/IL6R-L (antibody, human IgG1, kappa)
heavy: B2 heavy with E235D, G269A, E271D, D298Y
light: not shown
notes: as for B2

Kd [5]: 4 nM
Kd [6]: 92 nM
Kd [7]: 11 nM
B21: IL6R-BP535/IL6R-L (antibody, human IgG1, kappa)
heavy: B2 heavy with E235D, V266I, A329G, P398M
light: not shown
notes: as for B2

KD(IIb) of the parent polypeptide/KD(IIb) of the altered polypeptide [3]: 27.4 fold
KD(IIaR) of the parent polypeptide/KD(IIaR) of the altered polypeptide [4]: 0.5 fold
Kd [5]: 110 nM
Kd [6]: 2200 nM
Kd [7]: 14 nM
B24: IL6R-BP269/IL6R-L (antibody, human IgG1, kappa)
heavy: B2 heavy with G269S, R332A
light: not shown
notes: as for B2

Kd [5]: 2.4 nM
Kd [6]: 110 nM
Kd [7]: 4.5 nM
B27: IL6R-BP490/IL6R-L (antibody, human IgG1, kappa)
heavy: B2 heavy with V266I, G269A, D298Y
light: not shown
notes: as for B2

Kd [5]: 3.1 nM
Kd [6]: 86 nM
Kd [7]: 3.4 nM
B28: IL6R-BP553/IL6R-L (antibody, human IgG1, kappa)
heavy: B2 heavy with E235D, V266I, G269A, E274D, D298Y
light: not shown
notes: as for B2

relative binding activity [1]: 179 relative (IL6R-BF648/IL6R-L = 100)
relative binding activity [2]: 74 relative (IL6R-BF648/IL6R-L = 100)
B29: IL6R-BP188/IL6R-L (antibody, human IgG1, kappa)
heavy: B2 heavy with E235D, G269S, E270D, D298Y, R332K
light: not shown

Kd [5]: 20 nM
Kd [6]: 850 nM
B30: IL6R-BP557/IL6R-L (antibody, human IgG1, kappa)
heavy: B2 heavy with E270D
light: not shown
notes: as for B2

KD(IIb) of the parent polypeptide/KD(IIb) of the altered polypeptide [3]: 67.8 fold
KD(IIaR) of the parent polypeptide/KD(IIaR) of the altered polypeptide [4]: 1.4 fold
Kd [5]: 46 nM
Kd [6]: 780 nM
Kd [7]: 0.82 nM
B31: IL6R-BP484/IL6R-L (antibody, human IgG1, kappa)
heavy: B2 heavy with E235D, G269A, E271D, D298Y, R332A
light: not shown
notes: as for B2

Kd [5]: 3 nM
Kd [6]: 91 nM
Kd [7]: 9.3 nM
B34: IL6R-BP534/IL6R-L (antibody, human IgG1, kappa)
heavy: B2 heavy with E235D, V266I, G269S, P398L
light: not shown
notes: as for B2

From patent US20210261648A1 (published 2021)
